Like-named read-outs stand apart in the source and are kept apart here.
Experiments:
[1] = molecular target: T1, hB7-H4 (soluble human B7-H4, construct not named) (human, UniProt Q7Z7D3 25-259, limits assumed); test: SPR (Biacore)
T1 construct: also called soluble hB7-H4
T1 sequence: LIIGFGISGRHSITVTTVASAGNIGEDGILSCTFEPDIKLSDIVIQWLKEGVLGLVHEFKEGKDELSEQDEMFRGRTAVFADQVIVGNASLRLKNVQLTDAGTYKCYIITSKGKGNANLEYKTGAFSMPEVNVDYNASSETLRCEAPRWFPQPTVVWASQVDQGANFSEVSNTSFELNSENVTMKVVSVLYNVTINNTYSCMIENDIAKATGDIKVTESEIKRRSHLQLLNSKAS

[2] = molecular target: T2, human B7-H4 expressed on cells (human, UniProt Q7Z7D3 25-282); test: flow cytometry, SK-BR-3 cells
T2 construct: Transfected CHO cells or tumor cell lines that carry hB7-H4; also called cellular hB7-H4
T2 sequence: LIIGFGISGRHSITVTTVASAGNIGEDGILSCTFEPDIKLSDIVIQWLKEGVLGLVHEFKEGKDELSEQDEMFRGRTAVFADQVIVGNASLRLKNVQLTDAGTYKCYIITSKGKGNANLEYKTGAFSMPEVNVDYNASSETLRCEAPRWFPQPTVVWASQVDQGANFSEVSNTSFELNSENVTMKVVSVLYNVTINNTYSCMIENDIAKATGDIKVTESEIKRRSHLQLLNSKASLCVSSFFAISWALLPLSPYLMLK
Method in brief: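 Antibody or fusion protein dilution series applied to 1×10⁶ cells/ml in ice-cold FACS buffer, 1 h at 4 °C; cells washed thrice, labelled 30 min at 4 °C in darkness with 1:200 secondary antibody, washed, resuspended in PBS and analysed by flow cytometry.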

[3] = molecular target: T2, human B7-H4 expressed on cells; test: flow cytometry, SK-BR-3 cells; remark: listed apart in the source
[4] = molecular target: T3, human B7-H4-Fc (human); test: ELISA on coated hB7-H4-Fc
T3 construct: also called hB7-H4-Fc; hB7-H4 Fc
T3 sequence (chain, as listed by the source): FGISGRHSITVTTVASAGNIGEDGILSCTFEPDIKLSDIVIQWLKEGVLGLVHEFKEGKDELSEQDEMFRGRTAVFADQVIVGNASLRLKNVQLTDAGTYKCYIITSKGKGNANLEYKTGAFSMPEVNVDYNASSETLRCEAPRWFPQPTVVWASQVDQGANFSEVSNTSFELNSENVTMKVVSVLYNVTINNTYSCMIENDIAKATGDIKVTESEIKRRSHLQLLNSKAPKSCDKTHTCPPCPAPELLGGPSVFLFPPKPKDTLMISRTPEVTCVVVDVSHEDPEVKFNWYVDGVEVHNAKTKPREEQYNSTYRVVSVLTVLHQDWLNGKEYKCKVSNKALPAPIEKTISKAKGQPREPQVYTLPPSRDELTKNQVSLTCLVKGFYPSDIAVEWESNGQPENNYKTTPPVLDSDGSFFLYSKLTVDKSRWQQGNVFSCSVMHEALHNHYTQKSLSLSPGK
Procedure: (§1) About 1-2 μg/ml of human or mouse B7-H4-Fc (or his-tagged) was immobilized on ELISA plates (Immuno 2HB, Thermo scientific, cat #3455) at 4° C. overnight. After blocking the plates with 3% PBS+milk, serial diluted antibodies were added to the blocked plates and incubated at RT for 1-1.5 h. After washing the plates with PBS-T (0.05%), horse radish peroxidase (HRP)-conjugated antibody targeting the hFab was added to the plate. Signals were developed by adding 3,3′,5,5′-Tetramethylbenzidine (TMB (followed 1N of H₂SO₄ to stop the reaction. The OD at 450 nm was read by ELISA plate reader (Infinite M1000 from TECAN). GraphPad from Prism was used to plot OD450 vs. antibody concentration curve and to calculate the EC50 values.

[5] = molecular target: T2, human B7-H4 expressed on cells; test: flow cytometry, MDA-MB-468 cells
Procedure: (§2) Cells were harvested, washed once, and then re-suspended to the concentration of 1×10⁶ cells/ml in ice cold FACS Buffer. 25 μl of cell suspension was added to each well of a 96-well round-bottom microliter plate. Serially diluted antibodies or fusion proteins were added to each well and incubated for 1 hour at 4° C. Cells were washed three times by centrifugation at 1500 rpm for 5 minutes, and then stained with secondary antibody (1:200 dilution) for 30 min at 4° C. in the dark. Cells were washed once, re-suspended in 100 μl PBS buffer and then analyzed using Guava Flow Cytometry EasyCyte system.

[6] = molecular target: T4, mouse B7-H4-his (mouse, UniProt Q7TSP5 25-257); test: ELISA on coated mB7-H4-his
T4 construct: also called mB7-H4-his; mB7-H4-His; not shown: his tag
T4 sequence: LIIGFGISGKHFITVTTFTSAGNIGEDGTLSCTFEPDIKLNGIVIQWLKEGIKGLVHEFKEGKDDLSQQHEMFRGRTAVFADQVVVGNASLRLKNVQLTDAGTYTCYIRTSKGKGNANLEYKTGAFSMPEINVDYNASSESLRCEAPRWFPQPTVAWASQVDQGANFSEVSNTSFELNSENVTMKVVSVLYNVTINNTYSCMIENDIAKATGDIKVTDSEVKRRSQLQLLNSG
Procedure: as §1

[7] = molecular target: T2, human B7-H4 expressed on cells; test: flow cytometry, MX-1 cells
Procedure: as §2

[8] = molecular target: T5, IgC domain of mouse B7-H4-Fc (mouse; human); test: ELISA, coated mB7-H4 IgC domain
T5 construct: also called mB7-H4 IgC domain
T5 sequence (chain, as listed by the source): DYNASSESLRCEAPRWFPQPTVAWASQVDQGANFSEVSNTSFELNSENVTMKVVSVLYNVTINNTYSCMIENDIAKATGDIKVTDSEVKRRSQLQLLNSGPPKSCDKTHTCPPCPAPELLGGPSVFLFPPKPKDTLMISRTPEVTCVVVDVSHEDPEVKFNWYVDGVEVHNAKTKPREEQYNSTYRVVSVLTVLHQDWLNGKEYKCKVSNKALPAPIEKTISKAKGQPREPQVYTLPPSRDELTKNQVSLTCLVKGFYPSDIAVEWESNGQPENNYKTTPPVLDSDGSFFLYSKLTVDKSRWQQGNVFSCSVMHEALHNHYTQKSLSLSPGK

[9] = molecular target: T1, hB7-H4 (soluble human B7-H4, construct …); test: ELISA, hB7-H4
Method in brief: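 Direct binding ELISA: immobilized B7-H4-Fc or his-tagged antigen (~1-2 μg/ml, overnight, 4° C), antibody dilution series 1-1.5 h at RT. Readout OD450 after HRP anti-hFab and TMB; EC50 calculated.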

[10] = molecular target: T6, IgV domain of human B7-H4-Fc (human); test: ELISA on coated IgV domain of hB7-H4
T6 construct: also called hB7-H4 IgV domain
T6 sequence (chain, as listed by the source): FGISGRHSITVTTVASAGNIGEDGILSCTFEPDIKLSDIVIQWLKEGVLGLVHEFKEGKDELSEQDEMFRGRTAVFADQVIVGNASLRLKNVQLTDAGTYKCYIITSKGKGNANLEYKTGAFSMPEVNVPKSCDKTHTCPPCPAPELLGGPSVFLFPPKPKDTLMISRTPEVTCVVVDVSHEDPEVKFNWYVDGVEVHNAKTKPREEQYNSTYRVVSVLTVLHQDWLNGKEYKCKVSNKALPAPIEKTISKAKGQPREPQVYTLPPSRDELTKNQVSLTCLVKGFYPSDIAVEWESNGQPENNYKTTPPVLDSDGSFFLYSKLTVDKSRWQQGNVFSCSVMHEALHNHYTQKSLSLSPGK
Procedure: as §1

[11] = molecular target: T7, IgV domain of mouse B7-H4-Fc (mouse; human); test: ELISA, coated mB7-H4 IgV domain
T7 construct: also called mB7-H4 IgV domain
T7 sequence (chain, as listed by the source): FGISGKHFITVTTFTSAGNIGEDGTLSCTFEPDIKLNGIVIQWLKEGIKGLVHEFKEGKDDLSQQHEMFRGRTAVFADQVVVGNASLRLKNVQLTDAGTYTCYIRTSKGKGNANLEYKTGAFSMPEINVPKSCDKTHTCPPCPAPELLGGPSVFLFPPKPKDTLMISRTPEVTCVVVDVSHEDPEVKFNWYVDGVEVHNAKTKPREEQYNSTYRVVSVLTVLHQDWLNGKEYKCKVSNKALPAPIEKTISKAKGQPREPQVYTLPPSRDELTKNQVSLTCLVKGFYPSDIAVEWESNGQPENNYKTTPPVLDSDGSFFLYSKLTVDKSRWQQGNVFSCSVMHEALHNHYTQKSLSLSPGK

[12] = molecular target: T8, mouse B7-H4-Fc (mouse; human); test: ELISA on coated mB7-H4-Fc
T8 construct: also called mB7-H4-Fc; mB7-H4-hFc
T8 sequence (chain, as listed by the source): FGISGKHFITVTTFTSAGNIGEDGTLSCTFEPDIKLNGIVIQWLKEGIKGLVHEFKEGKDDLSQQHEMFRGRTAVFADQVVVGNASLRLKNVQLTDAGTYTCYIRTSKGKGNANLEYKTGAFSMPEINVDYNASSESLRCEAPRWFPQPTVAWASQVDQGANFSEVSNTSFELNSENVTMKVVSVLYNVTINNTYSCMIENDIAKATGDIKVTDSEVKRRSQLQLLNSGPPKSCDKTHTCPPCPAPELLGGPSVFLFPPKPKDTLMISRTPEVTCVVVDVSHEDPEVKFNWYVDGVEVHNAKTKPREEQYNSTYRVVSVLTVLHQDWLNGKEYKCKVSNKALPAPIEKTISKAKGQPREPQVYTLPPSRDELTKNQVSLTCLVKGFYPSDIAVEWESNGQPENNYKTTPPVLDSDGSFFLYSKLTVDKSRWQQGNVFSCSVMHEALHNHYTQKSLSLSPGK
Procedure: as §1

[13] = molecular target: T9, human B7-H4-his (human, UniProt Q7Z7D3 25-259); test: SPR (Biacore)
T9 construct: also called hB7-H4-his; hB7-H4 his; not shown: his tag
T9 sequence: T1 sequence
Method in brief: (§3)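 Kinetic constants came from a 1:1 Langmuir fit of binding at 25 °C in HBS-EP, pH 7.4. Analyte (100 nM to 0.1 nM) flowed for 180 s, then dissociated for 1000 or 1200 s, over amine-coupled human B7-H4-Fc, human B7-H4-his or mouse B7-H4-Fc surfaces at 50-100 RU.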

[14] = molecular target: T1, hB7-H4 (soluble human B7-H4, construct …); test: SPR (Biacore); remark: listed apart in the source
Method in brief: as §3

[15] = molecular target: T3, human B7-H4-Fc; test: SPR (Biacore)
Method in brief: as §3

[16] = molecular target: T1, hB7-H4 (soluble human B7-H4, construct …); test: ELISA, hB7-H4; remark: listed apart in the source
Procedure: as §1

[17] = molecular target: T6, IgV domain of human B7-H4-Fc; test: ELISA, coated hB7-H4 IgV domain
[18] = molecular target: T9, human B7-H4-his; test: ELISA on coated hB7-H4-his
Procedure: as §1

[19] = molecular target: T10, IgC domain of human B7-H4-Fc (human); test: ELISA, coated hB7-H4 IgC domain
T10 construct: also called hB7-H4 IgC domain
T10 sequence (chain, as listed by the source): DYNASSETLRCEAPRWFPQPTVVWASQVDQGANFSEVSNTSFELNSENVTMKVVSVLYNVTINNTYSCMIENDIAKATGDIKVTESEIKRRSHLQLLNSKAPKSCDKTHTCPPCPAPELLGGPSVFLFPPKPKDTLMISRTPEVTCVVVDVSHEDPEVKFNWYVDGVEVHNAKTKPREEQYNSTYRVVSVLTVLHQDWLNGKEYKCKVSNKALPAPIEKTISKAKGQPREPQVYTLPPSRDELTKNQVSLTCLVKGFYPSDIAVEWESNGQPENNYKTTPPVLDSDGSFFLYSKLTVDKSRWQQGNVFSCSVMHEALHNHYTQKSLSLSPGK

[20] = molecular target: T11, mouse B7-H4 expressed on cells (mouse, UniProt Q7TSP5 25-257); test: flow cytometry, CT26 cells expressing mB7-H4
T11 construct: also called cellular mB7-H4; mB7-H4/CT26
T11 sequence: T4 sequence

[21] = molecular target: T8, mouse B7-H4-Fc; test: ELISA, coated mB7-H4-Fc
Procedure: (§4) ELISA experiments were performed to determine binding to hB7-H4-Fc (FIG. 5A), hB7-H4-his (FIG. 5B), mB7-H4-Fc domain (FIG. 5C), hB7-H4 IgV domain (FIG. 5D), and hB7-H4 IgC domain (FIG. 5E). Flow cytrometry experiments were performed to determine binding to CHO cells expressing hB7-H4 (FIG. 5F) or mB7-H4 (FIG. 5G). […] A cross-reactive IgV binding antibody and an IgC binding antibody were used as controls.
as §1

[22] = molecular target: T12, mB7-H4 (soluble mouse B7-H4, construct not named) (mouse, UniProt Q7TSP5 25-257, limits assumed); test: summary of ELISA and flow cytometry
T12 sequence: T4 sequence

[23] = molecular target: T3, human B7-H4-Fc; test: ELISA, coated hB7-H4-Fc
Procedure: as §4, §1

[24] = molecular target: T10, IgC domain of human B7-H4-Fc; test: ELISA, coated hB7-H4 IgC domain; remark: listed apart in the source
Procedure: as §4, §1

[25] = molecular target: T9, human B7-H4-his; test: ELISA, coated hB7-H4-his
Procedure: as §1

[26] = molecular target: T11, mouse B7-H4 expressed on cells; test: flow cytometry, CHO cells expressing mB7-H4
Procedure: as §4, §2

[27] = molecular target: T6, IgV domain of human B7-H4-Fc; test: ELISA, coated hB7-H4 IgV domain; remark: listed apart in the source
Procedure: as §4, §1

[28] = molecular target: T4, mouse B7-H4-his; test: SPR (Biacore)
[29] = molecular target: T9, human B7-H4-his; test: SPR (Biacore); remark: listed apart in the source
[30] = molecular target: T3, human B7-H4-Fc; test: SPR (Biacore); remark: listed apart in the source
[31] = molecular target: T11, mouse B7-H4 expressed on cells; test: flow cytometry, mB7H4 stable cells (CHO)
Procedure: (§5) ELISA experiments were performed to determine binding to hB7-H4-Fc (FIG. 4A), hB7-H4-his (FIG. 4B), hB7-H4 IgV domain (FIG. 4C), and mB7-H4 IgV domain (FIG. 4D). Flow cytrometry experiments were performed to determine binding to CHO cells expressing hB7-H4 (FIG. 4E) or mB7-H4 (FIG. 4F). […] A cross-reactive IgV binding antibody was used as a control.
as §2

[32] = molecular target: T7, IgV domain of mouse B7-H4-Fc; test: ELISA, coated mB7-H4 IgV domain; remark: listed apart in the source
Procedure: as §5, §1

[33] = molecular target: T3, human B7-H4-Fc; test: ELISA, coated hB7-H4-Fc; remark: listed apart in the source
Procedure: as §5, §1

[34] = molecular target: T8, mouse B7-H4-Fc; test: ELISA, coated mB7-H4-Fc (title on the sheet: Binding to mB7H4-Fc)
Procedure: as §5, §1

B1: 3F2/50A10 (antibody, human IgG1, V domains shown)
VH: QVQLVQSGAEVKKPGASVKVSCKASGYTFTAQYMYWVRQAPGQGLEWMGRINPTSGNTVYAQKLQGRVTMTRDTSTSTVYMELSSLRSEDTAVYYCARGINWFDPWGQGTLVTVSS
VL: DIQMTQSPSSLSASVGDRVTITCQASQDISNYINWYQQKPGKAPKLLIYAASRLQSGVPSRFSGSGSGTDFTLTISSLQPEDFATYYCQQSYRSPFTFGQGTKLEIK
Kd [1]: 0.0454 nM
EC50 [2]: 0.41 nM
EC50 [3]: 1.18 nM
EC50 (read off the curve) [4]: ~0.07 nM
EC50 [5]: 0.416 nM
binding result [6]: no binding (tested: 10 nM)
EC50 [7]: 0.12 nM
binding result [8]: no binding (tested: log 1 nM (10 nM))
EC50 [9]: 0.046 nM
EC50 (read off the curve) [10]: ~0.08 nM
binding result [11]: no binding (tested: log 1 nM (10 nM))
binding result [12]: no binding (tested: 10 nM)
Kd [13]: 0.0155 nM
Kd [14]: 0.0385 nM
Kd [15]: 0.0433 nM
EC50 [16]: 0.082 nM
EC50 (read off the curve) [17]: ~0.1 nM
EC50 (read off the curve) [18]: ~0.1 nM
binding result [19]: no binding (tested: log 1 nM (10 nM))
binding result [20]: no binding (tested: log 2 nM (100 nM))

B2: 9H2/9H2 (antibody, V domains shown)
VH: QVQLVQSGAEVKKPGSSVKVSCKASGGTFSTYAINWVRQAPGQGLEWMGGINPMFGTARYAQKFQGRVTITADESTSTAYMELSSLRSEDTAVYYCARGRLHRHWGQGTLVTVSS
VL: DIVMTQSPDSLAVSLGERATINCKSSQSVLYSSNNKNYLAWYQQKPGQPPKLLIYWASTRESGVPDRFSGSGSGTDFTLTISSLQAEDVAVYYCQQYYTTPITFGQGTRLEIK
binding result [21]: no binding (tested: log 1 nM (10 nM))
binding result [22]: no binding
EC50 (read off the curve) [23]: ~0.07 nM
binding result [24]: no binding (tested: log 0.3 ug/ml (about 2 ug/ml))
EC50 (read off the curve) [25]: ~0.06 nM
binding result [26]: no binding (tested: log 2.3 nM (about 200 nM))
EC50 (read off the curve) [27]: ~0.07 nM

B3: 4H6/4H6 (antibody, human IgG1, V domains shown)
VH: EVQLLESGGGLVQPGGSLRLSCAASGFTFSSYGMHWVRQAPGKGLEWVSGISGSGGSTYYADSVKGRFTISRDNSKNTLYLQMNSLRAEDTAVYYCARTQWRASLDPWGQGTLVNVSS
VL: DIQMTQSPSSLSASVGDRVTITCRASQDISYWLAWYQQKPGKAPKLLIYGASTLQSGVPSRFSGSGSGTDFTLTISSLQPEDFATYYCQQTTMSPYTFGQGTKVEIK
binding result [28]: no binding
Kd [29]: 4 nM
Kd [30]: 2.86 nM
binding result [31]: no binding
binding result [32]: no binding
EC50 (read off the curve) [33]: ~0.01 µg/mL
binding result [22]: no binding
binding result [34]: no binding (tested: log 0.3 ug/ml (about 2 ug/ml))

Reference: patent US20230312724A1 (KADMON, published 2023)
